In article PMC12501149 (2025):
Where no end group is shown, it is not given here.

Columns and labels:
[1] = target: Clostridioides difficile toxin B (TcdB), full-length TcdB1 (VP10463) (Clostridioides difficile, UniProt P18177 1-2366); assay: SPR
[2] = target: TcdB 1285-1804 with C-terminal Avitag (RBD toxin fragment), biotinylated (Clostridioides difficile, UniProt P18177 1285-1804); assay: SPR
TcdB 1285-1804 with C-terminal Avitag (RBD toxin fragment), biotinylated, sequence (P18177 1285-1804): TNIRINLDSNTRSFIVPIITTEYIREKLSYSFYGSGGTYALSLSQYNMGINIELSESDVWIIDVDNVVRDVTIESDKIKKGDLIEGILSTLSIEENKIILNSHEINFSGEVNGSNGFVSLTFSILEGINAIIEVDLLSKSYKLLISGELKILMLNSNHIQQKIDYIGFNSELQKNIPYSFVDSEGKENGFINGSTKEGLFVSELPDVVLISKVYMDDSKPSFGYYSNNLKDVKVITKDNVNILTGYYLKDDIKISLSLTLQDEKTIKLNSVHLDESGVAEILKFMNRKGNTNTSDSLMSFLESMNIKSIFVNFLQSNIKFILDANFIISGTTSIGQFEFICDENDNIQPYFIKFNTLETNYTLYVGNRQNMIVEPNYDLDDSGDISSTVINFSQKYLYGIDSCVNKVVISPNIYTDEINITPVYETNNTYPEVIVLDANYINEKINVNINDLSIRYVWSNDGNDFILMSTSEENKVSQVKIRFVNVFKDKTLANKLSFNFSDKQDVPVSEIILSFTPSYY

Clostridioides difficile toxin B (TcdB), full-length TcdB1 (VP10463), sequence (P18177 whole entry, the tested form may be a part): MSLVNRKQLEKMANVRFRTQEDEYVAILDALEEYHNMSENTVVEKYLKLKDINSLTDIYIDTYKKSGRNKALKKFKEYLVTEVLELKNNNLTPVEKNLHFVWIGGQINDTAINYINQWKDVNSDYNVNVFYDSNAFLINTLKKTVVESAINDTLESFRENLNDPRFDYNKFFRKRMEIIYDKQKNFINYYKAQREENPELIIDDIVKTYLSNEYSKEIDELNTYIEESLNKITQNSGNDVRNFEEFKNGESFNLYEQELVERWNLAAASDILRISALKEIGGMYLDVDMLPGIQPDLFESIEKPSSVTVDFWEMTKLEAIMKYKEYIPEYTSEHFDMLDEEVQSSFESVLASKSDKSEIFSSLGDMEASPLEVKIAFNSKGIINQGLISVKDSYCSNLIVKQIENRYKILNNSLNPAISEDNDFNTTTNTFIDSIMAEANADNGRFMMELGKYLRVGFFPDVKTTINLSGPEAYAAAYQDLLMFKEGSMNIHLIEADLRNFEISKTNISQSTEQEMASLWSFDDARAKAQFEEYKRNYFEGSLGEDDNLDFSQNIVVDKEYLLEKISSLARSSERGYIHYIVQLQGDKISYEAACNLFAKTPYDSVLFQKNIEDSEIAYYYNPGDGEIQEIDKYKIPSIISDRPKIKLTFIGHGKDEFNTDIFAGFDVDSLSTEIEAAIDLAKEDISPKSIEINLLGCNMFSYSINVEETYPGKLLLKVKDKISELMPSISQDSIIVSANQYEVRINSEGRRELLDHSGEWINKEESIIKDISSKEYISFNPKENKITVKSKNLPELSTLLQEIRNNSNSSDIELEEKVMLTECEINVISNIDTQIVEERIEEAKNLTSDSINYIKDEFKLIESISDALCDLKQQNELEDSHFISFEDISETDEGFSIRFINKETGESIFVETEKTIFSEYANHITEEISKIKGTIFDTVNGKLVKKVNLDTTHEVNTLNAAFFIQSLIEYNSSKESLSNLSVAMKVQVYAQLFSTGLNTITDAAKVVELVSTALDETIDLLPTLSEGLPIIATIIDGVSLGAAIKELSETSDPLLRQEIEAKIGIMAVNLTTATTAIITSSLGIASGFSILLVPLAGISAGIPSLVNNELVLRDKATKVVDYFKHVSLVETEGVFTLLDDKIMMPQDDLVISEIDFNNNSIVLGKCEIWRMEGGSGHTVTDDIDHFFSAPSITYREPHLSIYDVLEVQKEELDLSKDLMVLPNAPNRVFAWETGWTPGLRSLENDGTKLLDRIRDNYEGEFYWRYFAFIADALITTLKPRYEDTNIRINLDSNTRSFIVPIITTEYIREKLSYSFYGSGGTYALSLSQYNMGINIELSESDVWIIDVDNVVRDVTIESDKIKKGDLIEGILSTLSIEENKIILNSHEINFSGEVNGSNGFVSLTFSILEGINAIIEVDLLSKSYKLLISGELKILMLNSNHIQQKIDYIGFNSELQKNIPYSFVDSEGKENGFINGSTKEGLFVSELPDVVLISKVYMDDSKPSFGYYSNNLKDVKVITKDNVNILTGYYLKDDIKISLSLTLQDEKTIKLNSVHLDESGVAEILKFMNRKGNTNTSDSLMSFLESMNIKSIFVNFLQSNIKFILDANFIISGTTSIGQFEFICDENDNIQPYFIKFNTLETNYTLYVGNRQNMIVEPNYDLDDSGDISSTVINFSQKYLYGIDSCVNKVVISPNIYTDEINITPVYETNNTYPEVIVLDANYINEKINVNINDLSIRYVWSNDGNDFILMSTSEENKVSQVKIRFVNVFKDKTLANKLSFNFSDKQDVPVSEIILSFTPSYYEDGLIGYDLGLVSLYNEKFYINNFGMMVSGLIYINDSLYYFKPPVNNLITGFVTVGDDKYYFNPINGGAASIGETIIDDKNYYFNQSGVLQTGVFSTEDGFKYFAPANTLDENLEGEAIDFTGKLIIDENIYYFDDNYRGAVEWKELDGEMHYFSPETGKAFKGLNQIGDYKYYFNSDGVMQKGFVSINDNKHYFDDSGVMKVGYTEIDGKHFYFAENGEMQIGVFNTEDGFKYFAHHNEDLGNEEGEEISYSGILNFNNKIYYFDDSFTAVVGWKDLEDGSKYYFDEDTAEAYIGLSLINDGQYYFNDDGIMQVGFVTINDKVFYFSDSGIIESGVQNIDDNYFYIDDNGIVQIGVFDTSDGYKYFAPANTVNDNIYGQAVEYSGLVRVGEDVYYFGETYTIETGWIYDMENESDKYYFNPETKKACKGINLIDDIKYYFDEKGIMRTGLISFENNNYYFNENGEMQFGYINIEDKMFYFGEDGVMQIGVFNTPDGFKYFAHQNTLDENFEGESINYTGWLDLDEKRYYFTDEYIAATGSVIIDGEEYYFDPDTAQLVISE

B1: cspg4 (designed minibinder) (designed binder)
chain: ENKLARAVVTVNKSWLATQLFVRLYRLCKAGDPRCEEVAEKLRKVLELQGVPETDIELVVEVAKG
- Kd [1]: 2 nM

B2: fzd48 (designed binder)
chain: KEELEKMIEELKKLIENGDKENFIKLFDEAFKKAKESRDPRTIASVWTLVLEFKNKN
- Kd [2]: < 0.01 nM

B3: ss2cspg18 (designed binder)
chain: MDEKVEKLKECLEKLKEKGDIKGVIDTERAIRICERSRHKEFCEWAIEKCENRIKES
modifications: disulfide (positions not given here)
- Kd [1]: 0.87 nM

B4: fzd13 (designed binder)
chain: AEKEVQELIDKALNTPDPKVASKYIISAVYVAAKARDPSLFQSALDTAKKL
- Kd [2]: 0.0056 nM
